Measurements from patent US20200317768A1 (published 2020).
Numbering of substitutions follows the chain as printed.

B1: M103205H795-MY209/M103202L889-SK1 (antibody, human IgG1, kappa)
heavy: QVTLKESGPVLVKPTETLTLTCTVSGIDLSHDDISWVRQAPGKGLEWVGIISYAGSTYYASWAKGRLTISKDTSKNQVVLTMTNMDPVDTATYYCARGVPAYSHGGDLWGQGTLVTVSSASTKGPSVFPLAPSSKSTSGGTAALGCLVKDYFPEPVTVSWNSGALTSGVHTFPAVLQSSGLYSLSSVVTVPSSSLGTQTYICNVNHKPSNTKVDKKVEPKSCDKTHTCPPCPAPELLNGPSVFLFPPKPKDTLMISRTPEVTCVVVDVSDEDPEVKFNWYVDGVEVHNAKTKPREELYNSTYRVVSVLTVLHQDWLNGKEYKCKVSNTALPKPIEKTISKAKGQPREPQVYTLPPSREEMTKNQVSLTCLVKGFYPSDIAVEWESNGQPENNYKTTPPVLDSDGSFFLYSKLTVDKSRWQQGNVFSCSVMHEALHNHYTQKSLSLSP
light: DIVMTQSPATLSLSPGERATLSCTSSQSVYHANWLSWFQQKPGQPPKLLIYWASTLAYGVPSRFSGSGSGTDFTLTISSLQPEDAATYYCAGGYGGGRYAFGQGTKVEIKRTVAAPSVFIFPPSDEQLKSGTASVVCLLNNFYPREAKVQWKVDNALQSGNSQESVTEQDSKDSTYSLSSTLTLSKADYEKHKVYACEVTHQGLSSPVTKSFNRGEC
notes: Substitutions introduced into M103205H795-SG1, expressed with M103202L889-SK1 as light chain; EU numbering
B2: M103205H795-MY342/M103202L889-SK1 (antibody, human IgG1, kappa)
heavy: B1 heavy with N238L, T328K, P398M
light: B1 light
notes: as for B1
B3: M103205H795-MY380/M103202L889-SK1 (antibody, human IgG1, kappa)
heavy: B1 heavy with D270E, L297Q, T328K, P398K
light: B1 light
notes: as for B1
B4: M103205H795-MY389/M103202L889-SK1 (antibody, human IgG1, kappa)
heavy: B1 heavy with N238T, S241L, L297Q, T328K
light: B1 light
notes: as for B1
B5: M103205H795-MY339/M103202L889-SK1 (antibody, human IgG1, kappa)
heavy: B1 heavy with N238L, L297Q, P398K
light: B1 light
notes: as for B1
B6: M103205H795-MY283/M103202L889-SK1 (antibody, human IgG1, kappa)
heavy: B1 heavy with N238T, T328K
light: B1 light
notes: as for B1
B7: M103205H795-MY515/M103202L889-SK1 (antibody, human IgG1, kappa)
heavy: B1 heavy with N238T, S300L, T328K
light: B1 light
notes: as for B1
B8: M103205H795-MY388/M103202L889-SK1 (antibody, human IgG1, kappa)
heavy: B1 heavy with N238T, S241I, L297Q, T328K
light: B1 light
notes: as for B1
B9: M103205H795-MY400/M103202L889-SK1 (antibody, human IgG1, kappa)
heavy: B1 heavy with N238T, L297Q, T328K, P333E
light: B1 light
notes: as for B1
B10: M103205H795-MY392/M103202L889-SK1 (antibody, human IgG1, kappa)
heavy: B1 heavy with N238T, L297Q, S300L, T328K
light: B1 light
notes: as for B1
B11: M103205H795-MY387/M103202L889-SK1 (antibody, human IgG1, kappa)
heavy: B1 heavy with N238T, S241V, L297Q, T328K
light: B1 light
notes: as for B1
B12: M103205H795-MY386/M103202L889-SK1 (antibody, human IgG1, kappa)
heavy: B1 heavy with N238L
light: B1 light
notes: as for B1
B13: M103205H795-MY341/M103202L889-SK1 (antibody, human IgG1, kappa)
heavy: B1 heavy with N238L, P398K
light: B1 light
notes: as for B1
B14: M103205H795-MY514/M103202L889-SK1 (antibody, human IgG1, kappa)
heavy: B1 heavy with N238T, S241V, L297Q, S300L, T328K
light: B1 light
notes: as for B1
B15: M103205H795-MY340/M103202L889-SK1 (antibody, human IgG1, kappa)
heavy: B1 heavy with N238L, T328K, P398K
light: B1 light
notes: as for B1

Target: T1, human FcγRIIaR extracellular domain with C-terminal His-tag (human, UniProt P12318 34-217)
T1 construct: also called human FcgRIIaR; FcγRIIa (type R)
T1 chain: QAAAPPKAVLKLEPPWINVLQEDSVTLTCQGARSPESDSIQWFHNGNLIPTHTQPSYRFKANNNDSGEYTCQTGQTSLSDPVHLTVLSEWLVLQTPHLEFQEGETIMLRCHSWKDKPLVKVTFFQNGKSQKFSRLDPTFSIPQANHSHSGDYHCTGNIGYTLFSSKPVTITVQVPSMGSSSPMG
Assay: SPR (BIACORE); KD of SG1 / KD of variant;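 note: relative to parent M103205H795-SG1 carrying the SG1 human heavy chain constant region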

| Binder | KD fold (SG1 = 1) [fold] |
| --- | --- |
| B1 | 1.3 |
| B2 | 1.1 |
| B3 | 1.3 |
| B4 | 5.8 |
| B5 | 1.7 |
| B6 | 1.1 |
| B7 | 4.2 |
| B8 | 4.8 |
| B9 | 1.5 |
| B10 | 2.7 |
| B11 | 3.5 |
| B12 | 0.6 |
| B13 | 2.6 |
| B14 | 6.5 |
| B15 | 1.3 |
